Source: article PMC9569640 (2022)
Square brackets hold non-standard residues; d marks the D form. Ends that are not written are not given here. FAM = FAM, a fluorescent label attached at the N-terminus of the peptide; pY = N[C@@H](Cc1ccc(OP(=O)(O)O)cc1)C(=O)O

Tests used:
Test in all cases: fluorescence polarization
CagA EPIYA-C 13-mer = biological target: T1, CagA EPIYA-C 13-mer (Helicobacter pylori)
T1 chain: {FAM}-SPEPI[pY]ATIDDLG

CagA EPIYA-B 13-mer = biological target: T2, CagA EPIYA-B 13-mer (Helicobacter pylori)
T2 chain: {FAM}-PEEPI[pY]AQVAKKV

CagA EPIYA-CD 8-mer = biological target: T3, CagA EPIYA-CD 8-mer (Helicobacter pylori)
T3 chain: {FAM}-EPI[pY]ATID

CagA EPIYA-D 13-mer = CagA EPIYA-D 13-mer (Helicobacter pylori)
CagA EPIYA-A 13-mer = CagA EPIYA-A 13-mer (Helicobacter pylori)

B1: SHIP2 SH2 (protein)
chain: APSWYHRDLSRAAAEELLARAGRDGSFLVRDSESVAGAFALCVLYQKHVHTYRILPDGEDFLAVQTSQGVPVRRFQTLGELIGLYAQPNQGLVCALLLPVEGE
Kd (CagA EPIYA-C 13-mer): 2960 nM
Kd (CagA EPIYA-B 13-mer): 18.6 µM
Kd (CagA EPIYA-CD 8-mer): 4.45 µM
Kd (CagA EPIYA-D 13-mer): 3.16 µM
Kd (CagA EPIYA-A 13-mer): 23.4 µM
